In publication doi:10.1101/2025.08.13.670108v1:

Key:
O=C(O)/C=C/c1c[nH]cn1 = test: purified protein; settings: pH 8.0; 25.0 °C
[1] = tested on: C[N+](C)(C)[C@@H](Cc1cnc[nH]1)C(=O)[O-]; test: purified protein; assay type: biochemical, Shewanella woodyi; settings: pH 8.5

Row | Substance | Km (O=C(O)/C=C/c1c[nH]cn1) [µM] | Km [1] [µM]
1 | Swoo_3912 (Shewanella woodyi ATCC 51908) | 0.7 ± 0.1 | –
2 | Swoo_3913 (Shewanella woodyi ATCC 51908) | – | 103 ± 8
